Biological target: PEDV-S1 protein fused with an Fc region (PEDV-S1-Fc protein) (porcine epidemic diarrhea virus | human)
Assay: SDS-PAGE under reducing and non-reducing conditions; purified proteins loaded with (+) or without (-) beta-mercaptoethanol, Coomassie stained; shows disulfide-linked dimers only

PEDV-S1 protein fused with an Fc region (PEDV-S1-Fc protein) (Fc fusion)
stoichiometry N: 2

Reference: PMC12463560
